{"source": "patent US11906519B2", "about": "“Methods for identifying LILRB-blocking antibodies” (THE BOARD OF REGENTS OF THE UNIVERSITY OF TEXAS SYSTEM, priority 2016, dated 2024)", "molecules": {"B1": {"name": "arginase-1: recombinant Arginase-1 protein supplemented to culture (protein, UniProt P05089 1-322, looked up)", "Arginase-1": "MSAKSRTIGIIGAPFSKGQPRGGVEEGPTVLRKAGLLEKLKEQECDVKDYGDLPFADIPNDSPFQIVKNPRSVGKASEQLAGKVAEVKKNGRISLVLGGDHSLAIGSISGHARVHPDLGVIWVDAHTDINTPLTTTSGNLHGQPVSFLLKELKGKIPDVPGFSWVTPCISAKDIVYIGLRDVDPGEHYILKTLGIKYFSMTEVDRLGIGKVMEETLSYLLGRKKRPIHLSFDVDGLDPSFTPATGTPVVGGLTYREGLYITEEIYKTGLLSGLDIMEVNPSLGKTPEEVTRTVNTAVAITLACFGLAREGNHKPIDYLNPPK"}}, "format_in_all_cases": "cell-based, human", "key": {"[1]": {"system": "T cells co-cultured with THP-1 cells", "test": "Tumor cell/T cell co-culture assay", "conditions": "T cells with irradiated THP-1 cells, protein supplemented", "procedure": "Tumor cell/T cell co-culture assay. Human T cells isolated from health donor peripheral blood (PB009-1-0, Allcells) were co-cultured with irradiated (28 Gy) THP-1 cells in a U-bottom 96 well-plate for 3-7 days. Anti-CD3/CD28-coated beads (#11161D, Thermo Fisher), 50 U/ml recombinant human IL-2, and 5 ng/ml recombinant human IL-7 were supplemented to the medium. In some experiments, THP-1 cells were cultured in the upper chamber of transwell inserts (pore size is 3 μM, #09-761-80, Thermo Fisher) for the U-bottom 96 well-plate. For primary AML or B-ALL samples, patient CD3^+ T cells were collected and patient leukemia cells were sorted as CD33^+ and CD19^+ for AML and B-ALL, respectively.\nCD8^+ T cells (5×10^4 per well) isolated from hPBMCs of a healthy donor (Interstate Blood Bank) were stimulated with anti-CD3/CD28/CD137-coated beads (11163D, Thermo Fisher) or cultured without stimulation for 2 days in a 96-well plate. Then, 5×10^3 human leukemia THP-1-Luc-GFP cells and 50 to 500 μg/ml anti-LILRB4 antibody C84 or control antibody mIgG were added. Cell numbers were determined on day 7 in triplicate wells. Anti-CD8 and anti-CD28 were used to detect human CTL cells; THP-1 cells were positive for GFP. […]"}, "THP-1 cells": {"system": "THP-1 cells", "test": "Transwell trans-endothelial migration of THP-1 cells", "conditions": "lilrb4-KO THP-1, recombinant protein supplemented"}, "MV4-11 cells": {"system": "MV4-11 cells", "test": "Transwell trans-endothelial migration of MV4-11 cells", "conditions": "lilrb4-KO MV4-11, recombinant protein supplemented", "procedure": "Transwell assay. To test the cell plasticity, 1×10^5 MV4-11 cells were labelled with CFSE (Invitrogen) and treated with 100 μg/ml of anti-LILRB4 antibody C84 or control antibody mIgG and cultured in the upper chamber of well in a transwell plate (Corning). After 18 h, cells in lower chamber were counted. To test the ability of AML cells to migrate through endothelial cells, 3×10^5 human umbilical vein endothelial cells (HUVEC) cells were cultured on the transwell membrane. After 3 days, 1×10^5 CFSE-labelled MV4-11 cells were seeded in the upper chamber with 100 μg/ml of C84 or mIgG. After 18 h, cells in lower chamber were counted."}}}
{"molecule": "B1", "values": [{"measurement": "T cell proliferation in coculture", "setting": "[1]", "value": "decreased"}, {"measurement": "Migration ability of THP-1 cells across endothelial cells", "setting": "THP-1 cells", "value": "increased"}, {"measurement": "Migration ability of MV4-11 cells across endothelial cells", "setting": "MV4-11 cells", "value": "increased"}]}
